Reference: US20260069656A1, “Nutritive Polypeptides and Formulations Thereof, and Methods of Production and Use Thereof” (Axcella Health Inc., priority 2013, published 2026)
Like-named read-outs stand apart in the source and are kept apart here.

B1: SEQID-00426: methionine deficient nutritive protein (protein, listed as Thermomyces lanuginosus)
chain: EVSQDLFNQFNLFAQYSAAAYCGKNNDAPAGTNITCTGNACPEVEKADATFLYSFEDSGVGDVTGFLALDNTNKLIVLSFRGSRSIENWIGNLNFDLKEINDICSGCRGHDGFTSSWRSVADTLRQKVEDAVREHPDYRVVFTGHSLGGALATVAGADLRGNGYDIDVFSYGAPRVGNRAFAEFLTVQTGGTLYRITHTNDIVPRLPPREFGYSHSSPEYWIKSGTLVPVTRNDIVKIEGIDATGGNNQPNIPDIPAHLWYFGLIGTCL
B2: Deglycosylated SEQID-00363: SEQID-00363 with mannose glycans enzymatically reduced (protein)
chain: ATLDSWLSNEATVARTAILNNIGADGAWVSGADSGIVVASPSTDNPDYFYTWTRDSGLVLKTLVDLFRNGDTSLLSTIENYISAQAIVQGISNPSGDLSSGAGLGEPKFNVDETAYTGSWGRPQRDGPALRATAMIGFGQWLLDNGYTSTATDIVWPLVRNDLSYVAQYWNQTGYDLWEEVNGSSFFTIAVQHRALVEGSAFATAVGSSCSWCDSQAPEILCYLQSFWTGSFILANFDSSRSGKDANTLLGSIHTFDPEAACDDSTFQPCSPRALANHKEVVDSFRSIYTLNDGLSDSEAVAVGRYPEDTYYNGNPWFLCTLAAAEQLYDALYQWDKQGSLEVTDVSLDFFKALYSDAATGTYSSSSSTYSSIVDAVKTFADGFVSIVETHAASNGSMSEQYDKSDGEQLSARDLTWSYAALLTANNRRNSVVPASWGETSASSVPGTCAATSAIGTYSSVTVTSWPSIVATGGTTTTATPTGSGSVTSTSKTTATASKTSTSTSSTSCTTPTAVAVTFDLTATTTYGENIYLVGSISQLGDWETSDGIALSADKYTSSDPLWYVTVTLPAGESFEYKFIRIESDDSVEWESDPNREYTVPQACGTSTATVTDTWR
modifications: deglycosylated; Aspergillus niger
B3: SEQID-00352: nutritive polypeptide naturally produced in Corn, recombinantly expressed in E. coli (protein)
chain: MATKRSVGTLGEADLKGKKVFVRADLNVPLDDAQKITDDTRIRASVPTIKFLLEKGAKVILASHLGRPKGVTPKYSLKPLVPRLSELLGVEVVMANDCIGEEVEKLAAALPEGGVLLLENVRFYKEEEKNEPEFAKKLASVADLYVNDAFGTAHRAHASTEGVTKYLKPAVAGFLMQKELDYLVGAVANPKKPFAAIVGGSKVSTKIGVIESLLAKVDILILGGGMIYTFYKAQGYSVGKSLVEEDKLELATSLIEKAKAKGVSLLLPTDIVVADKFAADAESKIVPATAIPDDWMGLDVGPDATKTFDEALDTTKTVIWNGPMGVFEFQKFAAGTEAIAKKLAELTTTKGVTTIIGGGDSVAAVEKAGLADKMSHISTGGGASLELLEGKTLPGVLALDDA
modifications: Zea mays
B4: SEQID-00425: nutritive polypeptide (protein, listed as Kluyveromyces lactis)
chain: MSCLIPENLRNPKKVHENRLPTRAYYYDQDIFESLNGPWAFALFDAPLDAPDAKNLDWETAKKWSTISVPSHWELQEDWKYGKPIYTNVQYPIPIDIPNPPTVNPTGVYARTFELDSKSIESFEHRLRFEGVDNCYELYVNGQYVGFNKGSRNGAEFDIQKYVSEGENLVVVKVFKWSDSTYIEDQDQWWLSGIYRDVSLLKLPKKAHIEDVRVTTTFVDSQYQDAELSVKVDVQGSSYDHINFTLYEPEDGSKVYDASSLLNEENGNTTFSTKEFISFSTKKNEETAFKINVKAPEHWTAENPTLYKYQLDLIGSDGSVIQSIKHHVGFRQVELKDGNITVNGKDILFRGVNRHDHHPRFGRAVPLDFVVRDLILMKKFNINAVRNSHYPNHPKVYDLFDKLGFWVIDEADLETHGVQEPFNRHTNLEAEYPDTKNKLYDVNAHYLSDNPEYEVAYLDRASQLVLRDVNHPSIIIWSLGNEACYGRNHKAMYKLIKQLDPTRLVHYEGDLNALSADIFSFMYPTFEIMERWRKNHTDENGKFEKPLILCEYGHAMGNGPGSLKEYQELFYKEKFYQGGFIWEWANHGIEFEDVSTADGKLHKAYAYGGDFKEEVHDGVFIMDGLCNSEHNPTPGLVEYKKVIEPVHIKIAHGSVTITNKHDFITTDHLLFIDKDTGKTIDVPSLKPEESVTIPSDTTYVVAVLKDDAGVLKAGHEIAWGQAELPLKVPDFVTETAEKAAKINDGKRYVSVESSGLHFILDKLLGKIESLKVKGKEISSKFEGSSITFWRPPTNNDEPRDFKNWKKYNIDLMKQNIHGVSVEKGSNGSLAVVTVNSRISPVVFYYGFETVQKYTIFANKINLNTSMKLTGEYQPPDFPRVGYEFWLGDSYESFEWLGRGPGESYPDKKESQRFGLYDSKDVEEFVYDYPQENGNHTDTHFLNIKFEGAGKLSIFQKEKPFNFKISDEYGVDEAAHACDVKRYGRHYLRLDHAIHGVGSEACGPAVLDQYRLKAQDFNFEFDLAFE
B5: SEQID-00429: nutritive polypeptide (protein, listed as Bacillus licheniformis)
chain: ANLKGTLMQYFEWYMPNDGQHWKRLQNDSAYLAEHGITAVWIPPAYKGTSQADVGYGAYDLYDLGEFHQKGTVRTKYGTKGELQSAIKSLHSRDINVYGDVVINHKGGADATEDVTAVEVDPADRNRVISGEHRIKAWTHFHFPGRGSTYSDFKWHWYHFDGTDWDESRKLNRIYKFQGKAWDWEVSNENGNYDYLMYADIDYDHPDVAAEIKRWGTWYANELQLDGFRLDAVKHIKFSFLRDWVNHVREKTGKEMFTVAEYWQNDLGALENYLNKTNFNHSVFDVPLHYQFHAASTQGGGYDMRKLLNGTVVSKHPLKAVTFVDNHDTQPGQSLESTVQTWFKPLAYAFILTRESGYPQVFYGDMYGTKGDSQREIPALKHKIEPILKARKQYAYGAQHDYFDHHDIVGWTREGDSSVANSGLAALITDGPGGAKRMYVGRQNAGETWHDITGNRSEPVVINSEGWGEFHVNGGSVSIYVQR
B6: SEQID-00341: nutritive polypeptide (protein, listed as Saccharomyces cerevisiae)
chain: MSTSREDSVYLAKLAEQAERYEEMVENMKTVASSGQELSVEERNLLSVAYKNVIGARRASWRIVSSIEQKEESKEKSEHQVELICSYRSKIETELTKISDDILSVLDSHLIPSATTGESKVFYYKMKGDYHRYLAEFSSGDAREKATNASLEAYKTASEIATTELPPTHPIRLGLALNFSVFYYEIQNSPDKACHLAKQAFDDAIAELDTLSEESYKDSTLIMQLLRDNLTLWTSDMSESGQAEDQQQQQQHQQQQPPAAAEGEAPK
modifications: strain ATCC 204508 / S288c

Experiments:
[1] = Oral pharmacokinetics in humans, plasma amino acid concentrations; parameters: species or system human; conditions: in vivo
Method: The anabolic response to protein ingestion is predicated on the delivery of essential amino acids. The purpose of this study was to examine the changes in plasma amino acid concentrations in response to various proteins over a period of 240 minutes. […] Subjects were fasted overnight (>8 hrs) before oral pharmacokinetic study. […] Plasma amino acid concentrations were quantified by Quest Diagnostics or Laboratory Corporation of America. […] FIGS. 64-67 show the plasma time course of each measured amino acid and the aggregate groups, essential amino acids (EAA), branched chain amino acids (BCAA), and total amino acids (TAA), for WPI and SEQID-105. […] Subjects were fasted overnight (>8 hrs) before oral pharmacokinetic study. […] Plasma amino acid concentrations were quantified by Quest Diagnostics or Laboratory Corporation of America. The purpose of this study was to examine the changes in plasma amino acid concentrations in response to a methionine deficient nutritive protein over a period of 240 minutes. […] Plasma amino acid concentrations were quantified by Quest Diagnostics or Laboratory Corporation of America.

[2] = simulated gi fluid
[3] = rat, in vivo, po
Method: (§1) Rat pharmacokinetic studies. Male Sprague Dawley rats with indwelling jugular vein cannula (JVC) were purchased from Harlan Laboratories and acclimated to the Test Facility (Agilux Laboratories) for at least two days prior to study initiation. Prior to dose administration animals were fasted overnight (11-13 h) and remained fasted until completion of the study. Test articles were orally administered via a bulb-tipped 18 gauge stainless steel gavage needle attached to a syringe. The weight of all dose syringes were recorded prior to and following dosing to more accurately determine the amount of solution dosed. Serial blood samples (˜300 μL) were collected from the JVC at time 0 (pre-dose) and 0.25, 0.5, 1, 2, and 4 h post-dose. Blood samples were collected into tubes containing the anti-coagulant K2EDTA, a general protease inhibitor cocktail (Sigma P8340, diluted 1:100 in whole blood), and a DPP IV inhibitor (Millipore DPP4, diluted 1:100 in whole blood). Immediately following blood collection tubes were vortexed and stored on wet ice until processing to plasma by centrifugation (3,500 rpm at 5° C.) within 1 h of collection. Plasma samples were then transferred into new tubes and stored at −80° C.
(§2) The concentration of Glu, Ser, His, Gly, Thr, Arg, Ala, Tyr, Val, Met, Phe, Ile, Leu, and Lys in the plasma samples was determined by HPLC amino acid analysis, as described herein. Prior to HPLC amino acid analysis, insoluble particles were removed from plasma samples by centrifugation (1100×g at 4° C.) for 10 min. A 25 μL sample of the soluble fraction was then transferred to a 96-well plate, for some samples an internal standard (Norvaline, Agilent) was added to each plasma sample at final concentration of 0.5 mM.

[4] = rat, in vivo
Method: A rat pharmacokinetic study with oral administration of native and modified forms of SEQID-00363 was performed as described herein. The indigestible marker Cobalt-EDTA was formulated at 50 mg/L in the dosed protein solutions to monitor differences in intestinal transit rate between treatment groups and individual rats. Following the final blood collection (at t=4 h) rats were euthanized and the terminal ileum (20 cm of small intestine prior to the cecum) and its contents (the digesta) were collected into a pre-weighed tube. The ileum was flushed with saline and pooled with the digesta. The pH of the digesta was adjusted to ˜3.0 with HCl in order to inactivate all enzymes. The ileum samples were placed into separate pre-weighed 15 mL conical tubes. All samples were flash frozen in liquid nitrogen, and stored at −80° C. until further analysis. Individual ileum and ileum content weights were calculated and recorded for each sample.
A sample of the digesta, which exists as a heterogenous solution containing insoluble particles, was used in the Coomassie Plus Protein Assay, as described herein, to determine protein concentration.

[5] = Rat pharmacokinetic studies, plasma amino acids by HPLC; conditions: oral administration to rats, doses of Table E33A
Method: as §1, §2

[6] = Intact half-life during simulated gastric fluid (SGF) digestion; conditions: SGF pH 1.5, pepsin:polypeptide 1:20 w/w, 37° C.; produced in E. coli unless otherwise noted
[7] = Pancreatin-based in vitro digestion, free amino acids by RP-HPLC; conditions: after 120 min SGF, Pancreatin SIF pH 6.5
Method: In this method, pancreatin, a mixture of enzymes, is used to simulate intestinal proteases. Specifically, the digestion of polypeptides into amino acids was analyzed by an in vitro Pancreatin-based digestion assay followed by free amino acid analysis using reversed phase HPLC (RP-HPLC). The nutritive polypeptide was added to SGF (0.92 g/L Pepsin (Sigma), 0.03 M NaCl titrated with HCl to pH 1.5) at a final concentration of 4 g/L and incubated at 37° C. for 120 min. After 120 min, Na2CO3 was added to a final concentration of 16 mM to quench the pepsin reaction. […] Time points were sampled from the reaction and quenched by heating to 95° C. for 5 min. Control samples were protease-free.
Analyses were performed using an Agilent 1100 series system. Primary amino acids were derivitized pre-column at room temperature, online, using o-phthalaldehyde (OPA). The OPA-derivatives were separated using the Zorbax Eclipse-AAA 4.6×150 mm, 3.5 μm column at 40° C. The separation gradient transitioned from 100% 40 mM Na2HPO4 pH 7.8 to 65% acetonitrile/methanol/water mixture (45/45/10) over 23 minutes. Analytes were detected by fluorescence at 340 nm Ex/450 nm Em.

[8] = Solubility of proteins (lyophilized/reconstituted or ultrafiltered); conditions: produced in E. coli unless otherwise noted

Molecule	SGF Half-life (t½) [6]	Free Leu (μM) at 120 min time point of Pancreatin digest [7]	Solubility [8]	also measured
B1	–	–	–	plasma EAA time course vs basal, Dunnett multiple comparison test [1]: plasma EAA levels at the 30 and 60 min. time points are significantly different from the basal levels at time 0 min; plasma Methionine over time [1]: Methionine shows no significant change over time; plasma amino acid levels across time, 1-way ANOVA [1]: significant differences across time for Glu and EAA; SGF Half-life (t½) ([2]; pH 1.5): 18 s; change in AUC0-4 h for plasma Lys [3]: did not alter the change in AUC0-4 h for plasma Lys
B2	–	–	–	SGF Half-life (t½) [2]: 258 s; bioavailability of amino acids (plasma free amino acids over 4 h) [3]: did not increase the bioavailability of Leucine or EAAs, it did increase the bioavailability of Serine and Threonine; total protein mass in digesta samples [4]: 7.7 mg
B3	12 s	906.1 µM	223 mg/mL	change in AUC0-4 h for plasma Lys [5]: increased the change in AUC0-4 h for plasma Lys
B4	18 s	713.1 µM	190 mg/mL	–
B5	300 s	580.7 µM	214 mg/mL	–
B6	12 s	1143.5 µM	166 mg/mL	–
